This is an account of results in patent US12246067.

Assay [1] deals with HLA-A02.01 (human). Kind of assay: peptide-HLA class I complex stability, method not described. The following applies: remark: other sources report otherwise.
The target in assay [2] is HLA-A02.01 (human). Kind of assay: peptide-HLA class I affinity, method not described. The following applies: remark: other sources report otherwise.

B1: KRAS, G12D peptide … (peptide)
peptide: LVVVGADGV
Molecule B1 gave a Measured stability in assay [1] of 0 h. The molecule also returned a Measured Affinity in assay [2] of 977 nM.

B2: KRAS, G12C peptide … (peptide)
peptide: LVVVGACGV
As for B2, the Measured stability in assay [1] was found to be 0.6 h. Besides, in assay [2], the Measured Affinity was 667 nM.

B3: KRAS, G12V peptide … (peptide)
peptide: LVVVGAVGV
On to B3, for which the Measured stability in assay [1] amounted to 0.6 h. Further, the Measured Affinity in assay [2] was found to be 682 nM.
